Test results taken from US20200317768A1 (published 2020).

T1: cynomolgus monkey FcγRIIa1 extracellular domain, His-tagged (cynomolgus monkey)
T1 construct: also called cyno FcgRIIa1; cynoFcγRIIa1; not shown: His-tag added to the C-terminus
T1 chain: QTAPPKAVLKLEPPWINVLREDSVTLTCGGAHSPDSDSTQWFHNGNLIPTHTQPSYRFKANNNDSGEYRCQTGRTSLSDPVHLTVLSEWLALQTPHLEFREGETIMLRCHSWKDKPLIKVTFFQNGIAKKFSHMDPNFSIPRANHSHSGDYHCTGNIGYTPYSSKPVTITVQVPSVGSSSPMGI

T2: cynomolgus monkey FcγRIIa2 extracellular domain, His-tagged (cynomolgus monkey)
T2 construct: also called cyno FcgRIIa2; cynoFcγRIIa2; not shown: His-tag added to the C-terminus
T2 chain: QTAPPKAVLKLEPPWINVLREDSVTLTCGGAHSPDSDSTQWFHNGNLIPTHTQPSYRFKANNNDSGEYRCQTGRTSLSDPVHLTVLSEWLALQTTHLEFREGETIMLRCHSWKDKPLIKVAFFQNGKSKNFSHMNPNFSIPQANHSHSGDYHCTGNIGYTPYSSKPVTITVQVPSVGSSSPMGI

T3: cynomolgus monkey FcγRIIa3 extracellular domain, His-tagged (cynomolgus monkey)
T3 construct: also called cyno FcgRIIa3; cynoFcγRIIa3; not shown: His-tag added to the C-terminus
T3 chain: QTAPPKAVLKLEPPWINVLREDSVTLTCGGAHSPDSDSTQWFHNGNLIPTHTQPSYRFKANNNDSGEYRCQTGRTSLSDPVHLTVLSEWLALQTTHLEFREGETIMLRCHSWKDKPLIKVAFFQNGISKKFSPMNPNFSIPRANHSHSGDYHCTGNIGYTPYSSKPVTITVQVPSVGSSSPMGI

T4: cynomolgus monkey FcγRIIb extracellular domain, His-tagged (cynomolgus monkey)
T4 construct: also called cyno FcgRIIb; cynoFcγRIIb; not shown: His-tag added to the C-terminus
T4 chain: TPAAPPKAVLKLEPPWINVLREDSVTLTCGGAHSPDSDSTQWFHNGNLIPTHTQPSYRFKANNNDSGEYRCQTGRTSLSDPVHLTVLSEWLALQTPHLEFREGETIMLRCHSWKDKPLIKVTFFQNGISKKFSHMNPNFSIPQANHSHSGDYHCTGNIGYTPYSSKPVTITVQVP

T5: human FcγRIIaH extracellular domain, His-tagged (human, UniProt P12318 34-217)
T5 construct: also called human FcgRIIaH; FcγRIIa (type H); not shown: His-tag added to the C-terminus
T5 sequence: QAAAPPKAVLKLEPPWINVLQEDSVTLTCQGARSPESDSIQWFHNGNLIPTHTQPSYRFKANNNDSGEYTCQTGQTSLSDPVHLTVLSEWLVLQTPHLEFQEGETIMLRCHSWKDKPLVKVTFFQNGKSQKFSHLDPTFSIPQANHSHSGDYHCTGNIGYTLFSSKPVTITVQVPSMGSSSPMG

T6: human FcγRIIaR extracellular domain, His-tagged (human, UniProt P12318 34-217)
T6 construct: also called human FcgRIIaR; FcγRIIa (type R); not shown: His-tag added to the C-terminus
T6 chain: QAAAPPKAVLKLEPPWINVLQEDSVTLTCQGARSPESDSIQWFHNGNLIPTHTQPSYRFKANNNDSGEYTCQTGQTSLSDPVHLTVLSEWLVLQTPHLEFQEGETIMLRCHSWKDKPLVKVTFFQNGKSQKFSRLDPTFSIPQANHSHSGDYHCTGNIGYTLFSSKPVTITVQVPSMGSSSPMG

T7: human FcγRIIb extracellular domain, His-tagged (human, UniProt P31994 43-217)
T7 construct: also called human FcgRIIb; not shown: His-tag added to the C-terminus
T7 sequence: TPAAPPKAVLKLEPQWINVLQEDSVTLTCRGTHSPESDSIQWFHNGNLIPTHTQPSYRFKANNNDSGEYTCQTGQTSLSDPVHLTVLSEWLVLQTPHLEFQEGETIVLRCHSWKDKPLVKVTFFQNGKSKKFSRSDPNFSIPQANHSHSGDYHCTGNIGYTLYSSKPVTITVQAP


Columns and labels:
Assay in all cases: SPR; KD of SG1 divided by KD of the variant;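 further: relative to parent M103205H795-SG1 carrying the SG1 human heavy chain constant region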
[1] = target: T1, cynomolgus monkey FcγRIIa1 …
Method: (§1) Regarding such interactions, KD values were calculated using the following 1:1 binding model described in BIACORE® T100 Software Handbook BR1006-48 Edition AE.
(§2) The behavior of interacting molecules according to the 1:1 binding model on BIACORE® can be described by Equation 1: Req=C·R max/(KD+C)+RI, wherein, Req is a plot of steady-state binding levels to analyte concentration. C is concentration, RI is bulk refractive index contribution in the sample, and Rmax is analyte binding capacity of the surface. When this equation is rearranged, KD can be expressed as Equation 2: KD=C·Rmax/(Req−RI)−C. KD can be calculated by substituting the values of Rmax, RI, and C into Equation 1 or Equation 2. From the current measurement conditions, RI=0, C=2 μmol/L can be used.
(§3) The resultant variants were expressed using M103202L889-SK1 as light chain and their affinity to human and cynoFcγRs were evaluated (Table 21).

[2] = target: T2, cynomolgus monkey FcγRIIa2 …
Method: as §1, §2, §3

[3] = target: T3, cynomolgus monkey FcγRIIa3 …
Method: as §1, §2, §3

[4] = target: T4, cynomolgus monkey FcγRIIb extracellular …
Method: as §1, §2, §3

[5] = target: T5, human FcγRIIaH extracellular domain, …
Method: as §1, §2, §3

[6] = target: T6, human FcγRIIaR extracellular domain, …
Method: as §1, §2, §3

[7] = target: T7, human FcγRIIb extracellular domain, …
Method: as §1, §2, §3

KD fold (SG1 = 1) [1] [fold]	KD fold (SG1 = 1) [2] [fold]	KD fold (SG1 = 1) [3] [fold]	KD fold (SG1 = 1) [4] [fold]	KD fold (SG1 = 1) [5] [fold]	KD fold (SG1 = 1) [6] [fold]	KD fold (SG1 = 1) [7] [fold]	Binder
0.9	1.3	3.1	1.2	2.9	1	0.9	M103205H795-MY261/M103202L889-SK1 (antibody, human IgG1, kappa, copies: 2 + 2) heavy: QVTLKESGPVLVKPTETLTLTCTVSGIDLSHDDISWVRQAPGKGLEWVGIISYAGSTYYASWAKGRLTISKDTSKNQVVLTMTNMDPVDTATYYCARGVPAYSHGGDLWGQGTLVTVSSASTKGPSVFPLAPSSKSTSGGTAALGCLVKDYFPEPVTVSWNSGALTSGVHTFPAVLQSSGLYSLSSVVTVPSSSLGTQTYICNVNHKPSNTKVDKKVEPKSCDKTHTCPPCPAPELLHGPSVFLFPPKPKDTLMISRTPEVTCVVVDVSDEDPEVKFNWYVDGVEVHNAKTKPREEQYNSTYRVVSVLTVLHQDWLNGKEYKCKVSNKALPKPIEKTISKAKGQPREPQVYTLPPSREEMTKNQVSLTCLVKGFYPSDIAVEWESNGQPENNYKTTPPVLDSDGSFFLYSKLTVDKSRWQQGNVFSCSVMHEALHNHYTQKSLSLSP light: DIVMTQSPATLSLSPGERATLSCTSSQSVYHANWLSWFQQKPGQPPKLLIYWASTLAYGVPSRFSGSGSGTDFTLTISSLQPEDAATYYCAGGYGGGRYAFGQGTKVEIKRTVAAPSVFIFPPSDEQLKSGTASVVCLLNNFYPREAKVQWKVDNALQSGNSQESVTEQDSKDSTYSLSSTLTLSKADYEKHKVYACEVTHQGLSSPVTKSFNRGEC
1.7	3	2.1	3.2	4.9	1.5	0.8	M103205H795-MY262/M103202L889-SK1 (antibody, human IgG1, kappa, copies: 2 + 2) heavy: QVTLKESGPVLVKPTETLTLTCTVSGIDLSHDDISWVRQAPGKGLEWVGIISYAGSTYYASWAKGRLTISKDTSKNQVVLTMTNMDPVDTATYYCARGVPAYSHGGDLWGQGTLVTVSSASTKGPSVFPLAPSSKSTSGGTAALGCLVKDYFPEPVTVSWNSGALTSGVHTFPAVLQSSGLYSLSSVVTVPSSSLGTQTYICNVNHKPSNTKVDKKVEPKSCDKTHTCPPCPAPELLVGPSVFLFPPKPKDTLMISRTPEVTCVVVDVSDEDPEVKFNWYVDGVEVHNAKTKPREEQYNSTYRVVSVLTVLHQDWLNGKEYKCKVSNKALPKPIEKTISKAKGQPREPQVYTLPPSREEMTKNQVSLTCLVKGFYPSDIAVEWESNGQPENNYKTTPPVLDSDGSFFLYSKLTVDKSRWQQGNVFSCSVMHEALHNHYTQKSLSLSP light: DIVMTQSPATLSLSPGERATLSCTSSQSVYHANWLSWFQQKPGQPPKLLIYWASTLAYGVPSRFSGSGSGTDFTLTISSLQPEDAATYYCAGGYGGGRYAFGQGTKVEIKRTVAAPSVFIFPPSDEQLKSGTASVVCLLNNFYPREAKVQWKVDNALQSGNSQESVTEQDSKDSTYSLSSTLTLSKADYEKHKVYACEVTHQGLSSPVTKSFNRGEC
0.7	1.4	1.2	1.1	0.8	0.6	0.8	M103205H795-MY260/M103202L889-SK1 (antibody, human IgG1, kappa, copies: 2 + 2) heavy: QVTLKESGPVLVKPTETLTLTCTVSGIDLSHDDISWVRQAPGKGLEWVGIISYAGSTYYASWAKGRLTISKDTSKNQVVLTMTNMDPVDTATYYCARGVPAYSHGGDLWGQGTLVTVSSASTKGPSVFPLAPSSKSTSGGTAALGCLVKDYFPEPVTVSWNSGALTSGVHTFPAVLQSSGLYSLSSVVTVPSSSLGTQTYICNVNHKPSNTKVDKKVEPKSCDKTHTCPPCPAPELLMGPSVFLFPPKPKDTLMISRTPEVTCVVVDVSDEDPEVKFNWYVDGVEVHNAKTKPREEQYNSTYRVVSVLTVLHQDWLNGKEYKCKVSNKALPKPIEKTISKAKGQPREPQVYTLPPSREEMTKNQVSLTCLVKGFYPSDIAVEWESNGQPENNYKTTPPVLDSDGSFFLYSKLTVDKSRWQQGNVFSCSVMHEALHNHYTQKSLSLSP light: DIVMTQSPATLSLSPGERATLSCTSSQSVYHANWLSWFQQKPGQPPKLLIYWASTLAYGVPSRFSGSGSGTDFTLTISSLQPEDAATYYCAGGYGGGRYAFGQGTKVEIKRTVAAPSVFIFPPSDEQLKSGTASVVCLLNNFYPREAKVQWKVDNALQSGNSQESVTEQDSKDSTYSLSSTLTLSKADYEKHKVYACEVTHQGLSSPVTKSFNRGEC

Continued, binder first:

Binder	KD fold (SG1 = 1) [1] [fold]	KD fold (SG1 = 1) [2] [fold]	KD fold (SG1 = 1) [3] [fold]	KD fold (SG1 = 1) [4] [fold]	KD fold (SG1 = 1) [5] [fold]	KD fold (SG1 = 1) [6] [fold]	KD fold (SG1 = 1) [7] [fold]
MS1032LO06-SG1 (M103205H795-SG1/M103202L889-SK1) (antibody, human IgG1, kappa, Anti-latent myostatin antibody; Parent of the Fc variants; copies: 2 + 2) heavy: not shown light: DIVMTQSPATLSLSPGERATLSCTSSQSVYHANWLSWFQQKPGQPPKLLIYWASTLAYGVPSRFSGSGSGTDFTLTISSLQPEDAATYYCAGGYGGGRYAFGQGTKVEIKRTVAAPSVFIFPPSDEQLKSGTASVVCLLNNFYPREAKVQWKVDNALQSGNSQESVTEQDSKDSTYSLSSTLTLSKADYEKHKVYACEVTHQGLSSPVTKSFNRGEC	1	1	1	1	1	1	1
M103205H795-MY201/M103202L889-SK1 (antibody, human IgG1, kappa, Fc variant G236N/H268D/A330K (EU numbering) of SG1; also called MS1032LO06-MY201; copies: 2 + 2) heavy: QVTLKESGPVLVKPTETLTLTCTVSGIDLSHDDISWVRQAPGKGLEWVGIISYAGSTYYASWAKGRLTISKDTSKNQVVLTMTNMDPVDTATYYCARGVPAYSHGGDLWGQGTLVTVSSASTKGPSVFPLAPSSKSTSGGTAALGCLVKDYFPEPVTVSWNSGALTSGVHTFPAVLQSSGLYSLSSVVTVPSSSLGTQTYICNVNHKPSNTKVDKKVEPKSCDKTHTCPPCPAPELLNGPSVFLFPPKPKDTLMISRTPEVTCVVVDVSDEDPEVKFNWYVDGVEVHNAKTKPREEQYNSTYRVVSVLTVLHQDWLNGKEYKCKVSNKALPKPIEKTISKAKGQPREPQVYTLPPSREEMTKNQVSLTCLVKGFYPSDIAVEWESNGQPENNYKTTPPVLDSDGSFFLYSKLTVDKSRWQQGNVFSCSVMHEALHNHYTQKSLSLSP light: DIVMTQSPATLSLSPGERATLSCTSSQSVYHANWLSWFQQKPGQPPKLLIYWASTLAYGVPSRFSGSGSGTDFTLTISSLQPEDAATYYCAGGYGGGRYAFGQGTKVEIKRTVAAPSVFIFPPSDEQLKSGTASVVCLLNNFYPREAKVQWKVDNALQSGNSQESVTEQDSKDSTYSLSSTLTLSKADYEKHKVYACEVTHQGLSSPVTKSFNRGEC	2.3	3.6	4.4	4.2	0.8	0.6	4.2
